Experimental findings from IntAct's records for PubMed 36931259 are described below.

The chains are these.
B1: 14-3-3 protein sigma (Homo sapiens), P31947 (parent)
chain: MERASLIQKAKLAEQAERYEDMAAFMKGAVEKGEELSCEERNLLSVAYKNVVGGQRAAWRVLSSIEQKSNEEGSEEKGPEVREYREKVETELQGVCDTVLGLLDSHLIKEAGDAESRVFYLKMKGDYYRYLAEVATGDDKKRIIDSARSAYQEAMDISKKEMPPTNPIRLGLALNFSVFHYEIANSPEEAISLAKTTFDEAMADLHTLSEDSYKDSTLIMQLLRDNLTLWTADNAGEEGGEAPQEPQS
partner: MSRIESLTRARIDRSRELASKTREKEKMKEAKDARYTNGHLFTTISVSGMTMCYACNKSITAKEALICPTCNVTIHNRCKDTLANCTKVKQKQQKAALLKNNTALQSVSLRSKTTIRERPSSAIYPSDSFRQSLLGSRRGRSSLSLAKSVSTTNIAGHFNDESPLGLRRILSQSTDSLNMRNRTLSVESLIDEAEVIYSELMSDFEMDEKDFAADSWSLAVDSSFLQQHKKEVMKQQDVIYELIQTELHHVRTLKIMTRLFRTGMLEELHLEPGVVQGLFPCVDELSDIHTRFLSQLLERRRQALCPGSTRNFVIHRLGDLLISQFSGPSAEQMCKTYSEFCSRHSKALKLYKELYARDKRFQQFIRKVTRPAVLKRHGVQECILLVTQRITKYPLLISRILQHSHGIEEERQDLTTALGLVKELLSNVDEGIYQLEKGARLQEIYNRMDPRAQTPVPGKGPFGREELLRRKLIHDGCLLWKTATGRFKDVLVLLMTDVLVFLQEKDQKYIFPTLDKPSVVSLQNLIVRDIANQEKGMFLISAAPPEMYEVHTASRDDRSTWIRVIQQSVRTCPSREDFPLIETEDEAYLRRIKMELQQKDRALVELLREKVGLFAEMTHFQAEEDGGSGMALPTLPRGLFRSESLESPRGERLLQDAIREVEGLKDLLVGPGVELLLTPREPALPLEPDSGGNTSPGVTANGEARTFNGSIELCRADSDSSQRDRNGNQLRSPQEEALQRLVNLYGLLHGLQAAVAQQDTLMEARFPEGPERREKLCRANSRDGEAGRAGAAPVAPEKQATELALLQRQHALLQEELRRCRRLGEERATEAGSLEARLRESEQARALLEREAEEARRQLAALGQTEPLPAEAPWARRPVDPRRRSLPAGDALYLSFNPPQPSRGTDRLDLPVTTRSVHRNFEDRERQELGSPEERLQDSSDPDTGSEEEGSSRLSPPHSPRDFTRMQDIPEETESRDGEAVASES
B2: Serine/threonine-protein kinase PAK 5 (Homo sapiens), Q9P286 (parent)
chain: MFGKKKKKIEISGPSNFEHRVHTGFDPQEQKFTGLPQQWHSLLADTANRPKPMVDPSCITPIQLAPMKTIVRGNKPCKETSINGLLEDFDNISVTRSNSLRKESPPTPDQGASSHGPGHAEENGFITFSQYSSESDTTADYTTEKYREKSLYGDDLDPYYRGSHAAKQNGHVMKMKHGEAYYSEVKPLKSDFARFSADYHSHLDSLSKPSEYSDLKWEYQRASSSSPLDYSFQFTPSRTAGTSGCSKESLAYSESEWGPSLDDYDRRPKSSYLNQTSPQPTMRQRSRSGSGLQEPMMPFGASAFKTHPQGHSYNSYTYPRLSEPTMCIPKVDYDRAQMVLSPPLSGSDTYPRGPAKLPQSQSKSGYSSSSHQYPSGYHKATLYHHPSLQSSSQYISTASYLSSLSLSSSTYPPPSWGSSSDQQPSRVSHEQFRAALQLVVSPGDPREYLANFIKIGEGSTGIVCIATEKHTGKQVAVKKMDLRKQQRRELLFNEVVIMRDYHHDNVVDMYSSYLVGDELWVVMEFLEGGALTDIVTHTRMNEEQIATVCLSVLRALSYLHNQGVIHRDIKSDSILLTSDGRIKLSDFGFCAQVSKEVPKRKSLVGTPYWMAPEVISRLPYGTEVDIWSLGIMVIEMIDGEPPYFNEPPLQAMRRIRDSLPPRVKDLHKVSSVLRGFLDLMLVREPSQRATAQELLGHPFLKLAGPPSCIVPLMRQYRHH
partner: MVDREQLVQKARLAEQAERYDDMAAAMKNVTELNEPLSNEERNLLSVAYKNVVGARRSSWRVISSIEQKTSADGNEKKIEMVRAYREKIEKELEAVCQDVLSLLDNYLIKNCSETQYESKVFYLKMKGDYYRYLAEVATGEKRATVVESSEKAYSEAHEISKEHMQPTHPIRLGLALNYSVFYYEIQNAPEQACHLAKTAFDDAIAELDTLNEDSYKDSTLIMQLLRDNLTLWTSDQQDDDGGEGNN
B3: Glutamate receptor-interacting protein 1 (Homo sapiens), Q9Y3R0-3 (parent)
chain: MIAVSFKCRCQILRRLTKDESPYTKSASQTKPPDGALAVRRQSIPEEFKGSTVVELMKKEGTTLGLTVSGGIDKDGKPRVSNLRQGGIAARSDQLDVGDYIKAVNGINLAKFRHDEIISLLKNVGERVVLEVEYELPPVSVQGSSVIFRTVEVTLHKEGNTFGFVIRGGAHDDRNKSRPVVITCVRPGGPADREGTIKPGDRLLSVDGIRLLGTTHAEAMSILKQCGQEAALLIEYDVSVMDSVATASGPLLVEVAKTPGASLGVALTTSMCCNKQVIVIDKIKSASIADRCGALHVGDHILSIDGTSMEYCTLAEATQFLANTTDQVKLEILPHHQTRLALKGPDHAALVSSSFSPTSMSAYSLSSLNMGTLPRSLYSTSPRGTMMRRRLKKKDFKSSLSLASSTVGLAGQVVHTETTEVVLTADPVTGFGIQLQGSVFATETLSSPPLISYIEADSPAERCGVLQIGDRVMAINGIPTEDSTFEEASQLLRDSSITSKVTLEIEFDVAESVIPSSGTFHVKLPKKHNVELGITISSPSSRKPGDPLVISDIKKGSVAHRTGTLELGDKLLAIDNIRLDNCSMEDAVQILQQCEDLVKLKIRKDEDNSDEQESSGAIIYTVELKRYGGPLGITISGTEEPFDPIIISSLTKGGLAERTGAIHIGDRILAINSSSLKGKPLSEAIHLLQMAGETVTLKIKKQTDAQSASSPKKFPISSHLSDLGDVEEDSSPAQKPGKLSDMYPSTVPSVDSAVDSWDGSAIDTSYGTQGTSFQASGYNFNTYDWRSPKQRGSLSPVTKPRSQTYPDVGLSYEDWDRSTASGFAGAADSAETEQEENFWSQALEDLETCGQSGILRELEEKADRRVSLRNMTLLATIMSGSTMSLNHEAPTPRSQLGRQASFQERSSSRPHYSQTTRSNTLPSDVGRKSVTLRKMKQEIKEIMSPTPVELHKVTLYKDSDMEDFGFSVADGLLEKGVYVKNIRPAGPGDLGGLKPYDRLLQVNHVRTRDFDCCLVVPLIAESGNKLDLVISRNPLASQKSIDQQSLPGDWSEQNSAFFQQPSHGGNLETREPTNTL
partner: B2 partner
B4: 14-3-3 protein sigma (Homo sapiens), P31947 (parent)
chain: B1 chain
partner: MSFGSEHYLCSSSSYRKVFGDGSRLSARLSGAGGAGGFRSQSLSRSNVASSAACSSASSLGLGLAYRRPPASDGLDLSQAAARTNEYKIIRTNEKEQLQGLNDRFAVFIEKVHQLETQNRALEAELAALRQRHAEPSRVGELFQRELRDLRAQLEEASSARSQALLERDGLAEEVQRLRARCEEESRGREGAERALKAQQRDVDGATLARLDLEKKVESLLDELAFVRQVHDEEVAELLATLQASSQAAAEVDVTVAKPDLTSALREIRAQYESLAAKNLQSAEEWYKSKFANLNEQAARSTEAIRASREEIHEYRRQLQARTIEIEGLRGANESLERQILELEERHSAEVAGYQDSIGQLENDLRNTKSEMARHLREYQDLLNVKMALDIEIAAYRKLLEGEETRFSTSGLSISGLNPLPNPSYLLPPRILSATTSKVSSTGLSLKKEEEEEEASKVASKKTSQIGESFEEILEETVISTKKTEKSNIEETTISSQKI
B5: 14-3-3 protein sigma (Homo sapiens), P31947 (parent)
chain: B1 chain
partner: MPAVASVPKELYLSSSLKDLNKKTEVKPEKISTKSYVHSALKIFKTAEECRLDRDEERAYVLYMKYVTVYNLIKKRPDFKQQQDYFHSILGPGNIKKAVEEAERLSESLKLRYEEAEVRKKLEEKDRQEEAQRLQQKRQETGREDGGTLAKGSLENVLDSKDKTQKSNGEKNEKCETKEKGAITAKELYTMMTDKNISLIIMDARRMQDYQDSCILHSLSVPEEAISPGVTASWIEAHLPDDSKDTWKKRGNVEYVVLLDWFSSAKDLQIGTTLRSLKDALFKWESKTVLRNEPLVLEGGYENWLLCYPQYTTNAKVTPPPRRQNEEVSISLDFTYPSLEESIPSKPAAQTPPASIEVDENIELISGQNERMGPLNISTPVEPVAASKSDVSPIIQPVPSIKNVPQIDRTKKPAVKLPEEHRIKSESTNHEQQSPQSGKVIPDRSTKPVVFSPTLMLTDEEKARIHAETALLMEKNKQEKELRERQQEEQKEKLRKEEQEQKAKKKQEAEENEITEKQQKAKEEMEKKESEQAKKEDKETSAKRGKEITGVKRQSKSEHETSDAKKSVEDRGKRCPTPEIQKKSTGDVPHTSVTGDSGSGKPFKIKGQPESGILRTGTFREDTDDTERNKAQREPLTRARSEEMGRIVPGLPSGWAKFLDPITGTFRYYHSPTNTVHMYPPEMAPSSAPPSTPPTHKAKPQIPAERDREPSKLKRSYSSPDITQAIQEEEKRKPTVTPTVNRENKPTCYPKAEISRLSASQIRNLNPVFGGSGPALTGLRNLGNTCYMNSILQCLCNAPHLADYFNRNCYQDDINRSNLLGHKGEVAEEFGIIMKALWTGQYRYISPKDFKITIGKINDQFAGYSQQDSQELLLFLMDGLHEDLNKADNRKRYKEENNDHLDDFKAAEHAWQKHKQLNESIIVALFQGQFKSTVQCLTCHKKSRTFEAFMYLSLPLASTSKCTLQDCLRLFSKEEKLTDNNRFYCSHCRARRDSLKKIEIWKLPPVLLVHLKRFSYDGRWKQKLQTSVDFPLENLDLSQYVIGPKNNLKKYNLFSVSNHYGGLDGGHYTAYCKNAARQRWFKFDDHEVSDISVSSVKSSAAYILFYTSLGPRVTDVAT

Variants of B1 are the subject of the first test. The following applies: with arhg2_human ARHGEF2, Q92974.
For the variant MERASLIQKAKLAEQAERYEDMAAFMKGAVEKGEELSCEERNLLSVAYENVVGGQEAAWRVLSSIEQKSNEEGSEEKGPEVREYREKVETELQGVCDTVLGLLDSHLIKEAGDAESRVFYLKMKGDYYRYLAEVATGDDKKRIIDSARSAYQEAMDISKKEMPPTNPIRLGLALNFSDFHYEIANSPEEAISLAKTTFDEAMADLHTLSEDSYKDSTLIMQLLRDNLTLWTADNAGEEGGEAPQEPQS [K49E;R56E;V178D], the “effect of a mutation on the interaction” value is reported as “decreasing interaction strength”.

The variants in the next test derive from B2. The following applies: with 1433g_human YWHAG.
With S99A;S270A;S290A;T317A;T349A, the “effect of a mutation on the interaction” value was “decreasing interaction strength”.

In a further test the parent is B3. The following applies: with 1433g_human YWHAG.
With T17A;S43A;S901A;T920A, the “effect of a mutation on the interaction” value is listed as “disrupting interaction strength”.

In another test the parent is B4. The following applies: with ainx_human INA.
Consider MERASLIQKAKLAEQAERYEDMAAFMKGAVEKGEELSCEERNLLSVAYENVVGGQEAAWRVLSSIEQKSNEEGSEEKGPEVREYREKVETELQGVCDTVLGLLDSHLIKEAGDAESRVFYLKMKGDYYRYLAEVATGDDKKRIIDSARSAYQEAMDISKKEMPPTNPIRLGLALNFSDFHYEIANSPEEAISLAKTTFDEAMADLHTLSEDSYKDSTLIMQLLRDNLTLWTADNAGEEGGEAPQEPQS [K49E;R56E;V178D], for which the “effect of a mutation on the interaction” value is “decreasing interaction strength”.

In another test the parent is B5. The following applies: with ubp8_human USP8, P40818.
In the case of MERASLIQKAKLAEQAERYEDMAAFMKGAVEKGEELSCEERNLLSVAYENVVGGQEAAWRVLSSIEQKSNEEGSEEKGPEVREYREKVETELQGVCDTVLGLLDSHLIKEAGDAESRVFYLKMKGDYYRYLAEVATGDDKKRIIDSARSAYQEAMDISKKEMPPTNPIRLGLALNFSDFHYEIANSPEEAISLAKTTFDEAMADLHTLSEDSYKDSTLIMQLLRDNLTLWTADNAGEEGGEAPQEPQS [K49E;R56E;V178D], the “effect of a mutation on the interaction” value was “decreasing interaction strength”.
